Experimental data published in IntAct's records for PubMed 12802020.

B1: Tumor susceptibility gene 101 protein (Homo sapiens), Q99816 (parent)
chain: MAVSESQLKKMVSKYKYRDLTVRETVNVITLYKDLKPVLDSYVFNDGSSRELMNLTGTIPVPYRGNTYNIPICLWLLDTYPYNPPICFVKPTSSMTIKTGKHVDANGKIYLPYLHEWKHPQSDLLGLIQVMIVVFGDEPPVFSRPISASYPPYQATGPPNTSYMPGMPGGISPYPSGYPPNPSGYPGCPYPPGGPYPATTSSQYPSQPPVTTVGPSRDGTISEDTIRASLISAVSDKLRWRMKEEMDRAQAELNALKRTEEDLKKGHQKLEEMVTRLDQEVAEVDKNIELLKKKDEELSSALEKMENQSENNDIDEVIIPTAPLYKQILNLYAEENAIEDTIFYLGEALRRGVIDLDVFLKHVRLLSRKQFQLRALMQKARKTAGLSDLY

Variants of: B1
Settings: with hgs_human HGS

| Variant | effect of a mutation on the interaction |
| --- | --- |
| MAVSESQLKKMVSKYKYRDLTVRETVNVITLYKDLKPVLDSYVFNDGSSRELMNLTGTIPVPYRGNTYNIPICLWLLDTYPYNPPICFVKPTSSATIKTGKHVDANGKIYLPYLHEWKHPQSDLLGLIQVMIVVFGDEPPVFSRPISASYPPYQATGPPNTSYMPGMPGGISPYPSGYPPNPSGYPGCPYPPGGPYPATTSSQYPSQPPVTTVGPSRDGTISEDTIRASLISAVSDKLRWRMKEEMDRAQAELNALKRTEEDLKKGHQKLEEMVTRLDQEVAEVDKNIELLKKKDEELSSALEKMENQSENNDIDEVIIPTAPLYKQILNLYAEENAIEDTIFYLGEALRRGVIDLDVFLKHVRLLSRKQFQLRALMQKARKTAGLSDLY [M95A] | decreasing interaction strength |
| MAVSESQLKKMVSKYKYRDLTVRETVNVITLYKDLKPVLDSYVFNDGSSRELMNLTGTIPVPYRGNTYNIPICLWLLDTYPYNPPICFAKPTSSMTIKTGKHVDANGKIYLPYLHEWKHPQSDLLGLIQVMIVVFGDEPPVFSRPISASYPPYQATGPPNTSYMPGMPGGISPYPSGYPPNPSGYPGCPYPPGGPYPATTSSQYPSQPPVTTVGPSRDGTISEDTIRASLISAVSDKLRWRMKEEMDRAQAELNALKRTEEDLKKGHQKLEEMVTRLDQEVAEVDKNIELLKKKDEELSSALEKMENQSENNDIDEVIIPTAPLYKQILNLYAEENAIEDTIFYLGEALRRGVIDLDVFLKHVRLLSRKQFQLRALMQKARKTAGLSDLY [V89A] | decreasing interaction strength |
| MAVSESQLKKMVSKYKYRDLTVRETVNVITLYKDLKPVLDSYVFADGSSRELMNLTGTIPVPYRGNTYNIPICLWLLDTYPYNPPICFVKPTSSMTIKTGKHVDANGKIYLPYLHEWKHPQSDLLGLIQVMIVVFGDEPPVFSRPISASYPPYQATGPPNTSYMPGMPGGISPYPSGYPPNPSGYPGCPYPPGGPYPATTSSQYPSQPPVTTVGPSRDGTISEDTIRASLISAVSDKLRWRMKEEMDRAQAELNALKRTEEDLKKGHQKLEEMVTRLDQEVAEVDKNIELLKKKDEELSSALEKMENQSENNDIDEVIIPTAPLYKQILNLYAEENAIEDTIFYLGEALRRGVIDLDVFLKHVRLLSRKQFQLRALMQKARKTAGLSDLY [N45A] | decreasing interaction strength |
| MAVSESQLKKMVSKYKYRDLTVRETVNVITLYKDLKPVLDSYVFNDGSSRELMNLTGTIPVPARGNTYNIPICLWLLDTYPYNPPICFVKPTSSMTIKTGKHVDANGKIYLPYLHEWKHPQSDLLGLIQVMIVVFGDEPPVFSRPISASYPPYQATGPPNTSYMPGMPGGISPYPSGYPPNPSGYPGCPYPPGGPYPATTSSQYPSQPPVTTVGPSRDGTISEDTIRASLISAVSDKLRWRMKEEMDRAQAELNALKRTEEDLKKGHQKLEEMVTRLDQEVAEVDKNIELLKKKDEELSSALEKMENQSENNDIDEVIIPTAPLYKQILNLYAEENAIEDTIFYLGEALRRGVIDLDVFLKHVRLLSRKQFQLRALMQKARKTAGLSDLY [Y63A] | decreasing interaction |
| MAVSESQLKKMVSKYKYRDLTVRETVNVITLYKDLKPVLDSYVFNDGSSRELMNLTGTIPVPYRGNTYNIPICLWLLDTYPYNPPICFVKPTSSMTIKTGKHVDANGKIYLPYLHEWKHPQSDLLGLIQVMIVVFGDEPPVFSRPISASYPPYQATGPPNTSYMPGMPGGISPYPSGYPPNPSGYPGCPYPPGGPYPATTSSQYPSQPPVTTVGPSRDGTISEDTIRASLISAVSDKLRWRMKEEMDRAQAELNALKRTEEDLKKGHQKLEEMVTRLDQEVAEVDKNIELLKKKDEELSSALEKMENQSENNDIDEVIILTALLYKQILNLYAEENAIEDTIFYLGEALRRGVIDLDVFLKHVRLLSRKQFQLRALMQKARKTAGLSDLY [P320L;P323L] | increasing interaction strength |
